Type in all cases: biochemical
One series addresses T1, α-2 macroglobulin (Homo sapiens, UniProt P01023).
T1 sequence (P01023 24-1474): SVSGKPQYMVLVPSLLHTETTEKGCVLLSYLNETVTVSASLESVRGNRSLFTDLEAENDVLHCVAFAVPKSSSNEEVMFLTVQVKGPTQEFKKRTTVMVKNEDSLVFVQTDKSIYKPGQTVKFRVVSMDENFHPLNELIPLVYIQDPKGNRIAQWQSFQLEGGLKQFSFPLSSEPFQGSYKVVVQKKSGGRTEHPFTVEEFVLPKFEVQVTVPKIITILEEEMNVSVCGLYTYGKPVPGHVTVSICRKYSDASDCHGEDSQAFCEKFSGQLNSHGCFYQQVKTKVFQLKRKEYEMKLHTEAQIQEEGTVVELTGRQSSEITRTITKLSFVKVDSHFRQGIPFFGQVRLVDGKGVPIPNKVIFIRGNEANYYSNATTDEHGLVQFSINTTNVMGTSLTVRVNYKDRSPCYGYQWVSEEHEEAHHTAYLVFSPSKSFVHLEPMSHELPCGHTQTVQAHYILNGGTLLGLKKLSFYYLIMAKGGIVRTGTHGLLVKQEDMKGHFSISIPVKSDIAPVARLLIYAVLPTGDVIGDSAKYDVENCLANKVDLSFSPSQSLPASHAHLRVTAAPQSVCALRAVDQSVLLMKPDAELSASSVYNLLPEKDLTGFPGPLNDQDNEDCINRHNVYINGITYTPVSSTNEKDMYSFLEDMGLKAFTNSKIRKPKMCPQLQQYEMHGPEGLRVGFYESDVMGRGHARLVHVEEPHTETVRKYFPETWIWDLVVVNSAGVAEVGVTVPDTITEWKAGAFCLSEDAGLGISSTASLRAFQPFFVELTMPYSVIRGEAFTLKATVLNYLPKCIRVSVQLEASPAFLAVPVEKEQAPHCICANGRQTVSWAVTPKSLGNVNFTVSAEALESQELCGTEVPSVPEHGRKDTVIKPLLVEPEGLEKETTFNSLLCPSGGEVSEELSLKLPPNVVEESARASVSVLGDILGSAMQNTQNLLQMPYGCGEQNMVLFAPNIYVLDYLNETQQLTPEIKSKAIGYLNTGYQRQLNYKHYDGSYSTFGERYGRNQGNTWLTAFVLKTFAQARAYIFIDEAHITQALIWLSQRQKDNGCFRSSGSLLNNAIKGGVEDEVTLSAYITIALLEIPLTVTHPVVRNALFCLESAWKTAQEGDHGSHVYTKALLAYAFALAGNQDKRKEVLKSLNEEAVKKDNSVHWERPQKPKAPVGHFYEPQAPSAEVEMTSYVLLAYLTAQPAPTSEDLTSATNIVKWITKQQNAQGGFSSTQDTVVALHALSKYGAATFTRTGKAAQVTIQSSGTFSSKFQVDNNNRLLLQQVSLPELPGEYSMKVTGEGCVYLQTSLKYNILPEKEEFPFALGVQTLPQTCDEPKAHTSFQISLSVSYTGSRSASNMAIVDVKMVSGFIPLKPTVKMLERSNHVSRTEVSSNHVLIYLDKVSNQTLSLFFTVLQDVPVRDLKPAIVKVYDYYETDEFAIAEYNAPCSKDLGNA
Kind of series: α2-macroglobulin assay of proteolytic activity. As to conditions: purified recombinant protein.

For series [1], the target named is T2, Bovine articular cartilage aggrecan (Glu373-Ala374 bond) (Bos taurus, UniProt P13608).
T2 construct: Bovine articular cartilage aggrecan was incubated with purified ADAMTS-8 or ADAMTS-4; from tissue; host or cells: bovine articular cartilage
Put plainly: Western blotting of enzyme-digested aggrecan with neoepitope antibodies (MAb BC-3, MAb AGG-C1, MAb BC-14). The procedure: Detailed procedures for Western blot analyses are set forth below. Bovine articular cartilage aggrecan was incubated with purified ADAMTS-8 or ADAMTS-4 for 16 h at 37° C. in 50 mM Tris, pH 7.3, containing 100 mM NaCl and 5 mM CaCl2. Digestion products were deglycosylated by incubation for 2 h at 37° C. in the presence of chondroitinase ABC (Seikagaku America, Falmouth, Mass.; 1 mU/μg aggrecan), keratanase (Seikagaku; 1 mU/μg aggrecan) and keratanase II (Seikagaku; 0.02 mU/μg aggrecan). Digestion products were separated on 4-12% Bis-Tris NuPAGE SDS PAGE gels (Invitrogen, Carlsbad, Calif.) and then electrophoretically transferred to nitrocellulose. Immunoreactive products were detected by Western blotting with MAb AGG-C1 (0.04 μg/ml) or MAb BC-3 (Caterson, et al., supra). Alkaline-phosphatase-conjugated secondary goat anti-mouse IgG (Promega Corp., Madison, Wis.; 1:7500) was subsequently incubated with the membranes, and NBT/BCIP substrate (Promega) was used to visualize immunoreactive bands. All antibody incubations were performed for 1 h at room temperature, and the immunoblots were incubated with the substrate for 5-15 min at room temperature to achieve optimum color development.

Another series has as its target bovine aggrecan (Bos taurus, UniProt P13608). Put plainly: Competitive inhibition ELISA for aggrecanase activity (MAb AGG-C1). As to conditions: bovine aggrecan digested 16 h at 37° C.; for amount of enzyme required to generate 45% inhibition in the competitive inhibition ELISA: then MAb AGG-C1 added. The procedure: Streptavidin-coated microtiter plates (Pierce, Rockford, Ill.) were coated with N-terminally biotinylated peptide aggc1 (b-aggc1) by incubating each well with 100 μl of b-aggc1 (100 ng/ml) for 1 h at room temperature. After washing 4 times with phosphate-buffered saline containing 0.01% Tween-20 (PBS-Tween), wells were blocked for 1 h at room temperature with 100 μl of PBS-Tween containing 2% BSA, followed by 4 washes with PBS-Tween.
In order to validate the neoepitope nature of MAb AGG-C1, competition mixtures (100 μl) comprised of MAb AGG-C1 (0.04 μg/ml) and 1.0-1000 nmol/ml of the synthetic peptides GGLPLPRNITEGE (SEQ ID NO:22), GGLPLPRNITEGE ARGSVILTVK-CONH2 (SEQ ID NO:23), undigested aggrecan, or ADAMTS-4 digested aggrecan were preincubated for 1 h at room temperature. Mixtures were then transferred to b-aggc1 coated wells. After a further incubation for 1 h at room temperature, the plates were washed 4 times with PBS-Tween then incubated for 1 h at room temperature with 100 μl of peroxidase-conjugated secondary goat anti-mouse IgG (1:10,000). Following 4 final washes with PBS-Tween, the wells were incubated with TMB 1 component microwell peroxidase substrate (BioFX Laboratories, Owings Mills, Md.). Color development was terminated by the addition of 0.18 M H2SO4, and the absorbance was monitored spectrophotometrically at 450 nm.
For the generation of a standard curve, bovine aggrecan (25 μg in 50 μl) was digested with ADAMTS-4 (0.001 ng-5 ng) for 16 h at 37° C. MAb AGG-C1 was then added to each digest (final antibody concentration of 0.04 μg/ml) and these mixtures were preincubated for 1 h at room temperature, followed by transfer to b-aggc1 coated plates and completion of the ELISA.
The standard curve was generated by incubating bovine aggrecan with increasing amounts of recombinant ADAMTS-4 for 16 h at 37° C. followed by addition of MAb AGG-C1 to each digest. Similar assays were performed to estimate the relative aggrecanase activity of ADAMTS-8.

T2 sequence (P13608 17-2364): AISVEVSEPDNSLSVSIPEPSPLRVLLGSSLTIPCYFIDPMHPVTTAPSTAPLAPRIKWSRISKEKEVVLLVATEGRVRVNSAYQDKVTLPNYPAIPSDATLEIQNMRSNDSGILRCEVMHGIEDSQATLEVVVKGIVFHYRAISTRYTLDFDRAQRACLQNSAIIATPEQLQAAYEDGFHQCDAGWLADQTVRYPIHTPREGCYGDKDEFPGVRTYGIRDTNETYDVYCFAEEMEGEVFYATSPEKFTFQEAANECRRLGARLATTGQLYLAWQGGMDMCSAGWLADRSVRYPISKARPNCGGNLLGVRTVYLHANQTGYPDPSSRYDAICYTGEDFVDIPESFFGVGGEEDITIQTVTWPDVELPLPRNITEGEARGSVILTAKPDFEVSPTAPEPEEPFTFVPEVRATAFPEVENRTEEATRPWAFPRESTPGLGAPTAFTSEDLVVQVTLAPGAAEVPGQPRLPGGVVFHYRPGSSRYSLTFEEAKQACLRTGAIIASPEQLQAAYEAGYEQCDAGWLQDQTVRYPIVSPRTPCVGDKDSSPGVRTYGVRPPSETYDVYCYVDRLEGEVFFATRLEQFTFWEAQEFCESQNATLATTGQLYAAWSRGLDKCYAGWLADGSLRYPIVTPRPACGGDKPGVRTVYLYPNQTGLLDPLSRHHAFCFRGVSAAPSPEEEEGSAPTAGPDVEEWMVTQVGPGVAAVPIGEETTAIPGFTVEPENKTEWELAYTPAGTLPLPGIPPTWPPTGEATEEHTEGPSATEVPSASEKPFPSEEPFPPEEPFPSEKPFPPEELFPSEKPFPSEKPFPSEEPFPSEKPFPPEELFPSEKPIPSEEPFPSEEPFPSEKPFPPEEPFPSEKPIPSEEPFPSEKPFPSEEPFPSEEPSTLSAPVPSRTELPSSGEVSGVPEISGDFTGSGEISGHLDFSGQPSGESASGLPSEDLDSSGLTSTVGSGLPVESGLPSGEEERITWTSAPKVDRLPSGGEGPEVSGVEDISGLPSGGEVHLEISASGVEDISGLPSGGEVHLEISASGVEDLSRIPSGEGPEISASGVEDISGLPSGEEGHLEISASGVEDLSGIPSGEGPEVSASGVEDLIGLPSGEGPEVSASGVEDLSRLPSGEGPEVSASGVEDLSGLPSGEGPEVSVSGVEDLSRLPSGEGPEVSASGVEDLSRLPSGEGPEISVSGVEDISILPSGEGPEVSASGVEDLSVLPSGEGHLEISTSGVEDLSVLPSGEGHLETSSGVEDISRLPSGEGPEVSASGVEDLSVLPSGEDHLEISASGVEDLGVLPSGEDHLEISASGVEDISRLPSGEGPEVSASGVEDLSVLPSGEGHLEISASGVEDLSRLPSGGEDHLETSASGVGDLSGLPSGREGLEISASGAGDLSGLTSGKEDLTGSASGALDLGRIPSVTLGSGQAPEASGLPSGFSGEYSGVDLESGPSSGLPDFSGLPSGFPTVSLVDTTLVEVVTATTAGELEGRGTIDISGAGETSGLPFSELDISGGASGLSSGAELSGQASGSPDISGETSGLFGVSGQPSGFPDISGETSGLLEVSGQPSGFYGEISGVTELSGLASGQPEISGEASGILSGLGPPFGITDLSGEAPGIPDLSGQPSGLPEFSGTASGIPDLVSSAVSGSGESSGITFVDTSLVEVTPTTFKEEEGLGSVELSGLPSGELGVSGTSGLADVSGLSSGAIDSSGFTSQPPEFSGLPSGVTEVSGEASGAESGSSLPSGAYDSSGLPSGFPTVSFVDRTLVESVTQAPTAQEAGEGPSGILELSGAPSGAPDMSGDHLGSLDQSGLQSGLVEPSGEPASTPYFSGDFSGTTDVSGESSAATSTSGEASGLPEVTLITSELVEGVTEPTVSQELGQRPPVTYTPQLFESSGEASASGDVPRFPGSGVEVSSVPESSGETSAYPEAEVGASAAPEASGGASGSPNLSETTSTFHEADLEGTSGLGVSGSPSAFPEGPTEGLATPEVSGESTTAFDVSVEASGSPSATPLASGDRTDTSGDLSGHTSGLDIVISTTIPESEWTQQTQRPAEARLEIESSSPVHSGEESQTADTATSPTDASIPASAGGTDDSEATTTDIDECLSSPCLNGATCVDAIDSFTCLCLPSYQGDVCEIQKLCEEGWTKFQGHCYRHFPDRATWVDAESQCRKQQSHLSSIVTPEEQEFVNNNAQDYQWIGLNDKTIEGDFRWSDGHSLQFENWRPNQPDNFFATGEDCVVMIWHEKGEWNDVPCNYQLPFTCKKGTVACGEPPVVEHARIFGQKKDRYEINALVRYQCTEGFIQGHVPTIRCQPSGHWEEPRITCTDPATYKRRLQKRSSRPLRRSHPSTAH
Sequence of bovine aggrecan (P13608 17-2364): as above

B1: C-terminally truncated ADAMTS-8: Recombinant ADAMTS-8 in which the C-terminal thrombospondin and spacer domains were deleted (protein)
chain: MLPAPAAPRWPPLLLLLLLLLLPLARGAPARPAAGGQASELVVPTRLPGSAGELALHLSAFGKGFVLRLAPDDSFLAPEFKIERLGGSGRATGGERGLRGCFFSGTVNGEPESLAAVSLCRGLSGSFLLDGEEFTIQPQGAGGSLAQPHRLQRWGPAGARPLPRGPEWEVETGEGQRQERGDHQEDSEEESQEEEAEGASEPPPPLGATSRTKRFVSEARFVETLLVADASMAAFYGADLQNHILTLMSVAARIYKHPSIKNSINLMVVKVLIVEDEKWGPEVSDNGGLTLRNFCNWQRRFNQPSDRHPEHYDTAILLTRQNFCGQEGLCDTLGVADIGTICDPNKSCSVIEDEGLQAAHTLAHELGHVLSMPHDDSKPCTRLFGPMGKHHVMAPLFVHLNQTLPWSPCSAMYLTELLDGGHGDCLLDAPRAALPLPTGLPGRMALYQLDQQCRQIFGPDFRHCPNTSAQDVCAQLWCHTDGAEPLCHTKNGSLPWADGTPCGPGHLCSEGSCLPEEEVERPKPVADGGWAPWGPWGECSRTCGGGVQFSHRECKDPEPQNGGRYCLGRRAKYQSCHTEECPPDGKSFREQQCEKYNAYNYTDMDGNLLQWVPKYAGVSPRDRCKLFCRARGRSEFKVFEAKVIDGTLCGPETLAICVRGQCVKAGCDHVVDSPRKLDKCGVCGGKGNSCRKVSGSLTPTNYGYNDIVTIPAGATNIDVKQRSHPGVQNDGNYLALKTADGQYLLNGNLAISAIEQDILVKGTILKYSGSIATLERLQSFRPLPEPLTVQLLTVPGEVFPPKVKYTFFVPNDVDFSMQSSKERATTNIIQPLLHAQWVLGDWSECSSTCGAGWQRRTVECRDPSGQASATCNKALKPEDAKPCESQLCPL
B1: in the series with α-2 macroglobulin, the “proteolytic activity by α2-macroglobulin assay” value is “active”. Also, in series [1] (AGG-C1 Western blotting), the “activity on aggrecan substrate compared with full-length recombinant ADAMTS-8” value is recorded as “no more active than full-length recombinant ADAMTS-8”.

B2: ADAMTS-8: Recombinant human full-length ADAMTS-8 with carboxy-terminal Strep-tag expressed in CHO cells; elution fraction holds pro- and mature forms (protein)
chain: RFVSEARFVETLLVADASMAAFYGADLQNHILTLMSVAARIYKHPSIKNSINLMVVKVLIVEDEKWGPEVSDNGGLTLRNFCNWQRRFNQPSDRHPEHYDTAILLTRQNFCGQEGLCDTLGVADIGTICDPNKSCSVIEDEGLQAAHTLAHELGHVLSMPHDDSKPCTRLFGPMGKHHVMAPLFVHLNQTLPWSPCSAMYLTELLDGGHGDCLLDAPRAALPLPTGLPGRMALYQLDQQCRQIFGPDFRHCPNTSAQDVCAQLWCHTDGAEPLCHTKNGSLPWADGTPCGPGHLCSEGSCLPEEEVERPKPVADGGWAPWGPWGECSRTCGGGVQFSHRECKDPEPQNGGRYCLGRRAKYQSCHTEECPPDGKSFREQQCEKYNAYNYTDMDGNLLQWVPKYAGVSPRDRCKLFCRARGRSEFKVFEAKVIDGTLCGPETLAICVRGQCVKAGCDHVVDSPRKLDKCGVCGGKGNSCRKVSGSLTPTNYGYNDIVTIPAGATNIDVKQRSHPGVQNDGNYLALKTADGQYLLNGNLAISAIEQDILVKGTILKYSGSIATLERLQSFRPLPEPLTVQLLTVPGEVFPPKVKYTFFVPNDVDFSMQSSKERATTNIIQPLLHAQWVLGDWSECSSTCGAGWQRRTVECRDPSGQASATCNKALKPEDAKPCESQLCPLGSGSAWSHPQFEK
For B2, the “proteolytic activity by α2-macroglobulin assay” value with α-2 macroglobulin is “verified”. In addition, in the series with bovine aggrecan, the “amount of enzyme required to generate 45% inhibition in the competitive inhibition ELISA” value stood at 46.6 ± 4.8 pM. Moreover, the “cleavage site specificity of aggrecanase activity” value in series [1] (BC-3 and AGG-C1 Western blots) was “specific for the Glu^373-Ala^374 site”. Besides, the “MAb BC-3 immunoreactive bands (cleavage at Glu373-Ala374)” value in series [1] (MAb BC-3 Western blot, 16 h at 37° C.) is “increased in intensity with increasing amounts”. The “efficiency of cleaving cartilage aggrecan at Glu373-Ala374 compared with ADAMTS-4” value in series [1] (same Western blots, FIGS. 6A-6C) was “less efficient than ADAMTS4”.

B3: ADAMTS-4: Recombinant ADAMTS-4 used for comparison, spontaneously truncated and lacking the spacer domain (protein)
chain: FASLSRFVETLVVADDKMAAFHGAGLKRYLLTVMAAAAKAFKHPSIRNPVSLVVTRLVILGSGEEGPQVGPSAAQTLRSFCAWQRGLNTPEDSDPDHFDTAILFTRQDLCGVSTCDTLGMADVGTVCDPARSCAIVEDDGLQSAFTAAHELGHVFNMLHDNSKPCISLNGPLSTSRHVMAPVMAHVDPEEPWSPCSARFITDFLDNGYGHCLLDKPEAPLHLPVTFPGKDYDADRQCQLTFGPDSRHCPQLPPPCAALWCSGHLNGHAMCQTKHSPWADGTPCGPAQACMGGRCLHMDQLQDFNIPQAGGWGPWGPWGDCSRTCGGGVQFSSRDCTRPVPRNGGKYCEGRRTRFRSCNTEDCPTGSALTFREEQCAAYNHRTDLFKSFPGPMDWVPRYTGVAPQDQCKLTCQAQALGYYYVLEPRVVDGTPCSPDSSSVCVQGRCIHAGCDRIIGSKKKFDKCMVCGGDGSGCSKQSGSFRK
Take B3: the “amount of enzyme required to generate aggrecan cleavage product giving 45% inhibition in the competitive inhibition ELISA” value with bovine aggrecan (FIG. 7 standard curve) is on record as “approximately 1 ng”. In the series with bovine aggrecan, the “amount of enzyme required to generate 45% inhibition in the competitive inhibition ELISA” value is 0.0135 pM.
